Measurements taken from patent US20220363752A1 (VERSEAU THERAPEUTICS, published 2022).
Primed or numbered codes have the meaning given here. Biotin′ = not defined here

T1: LRRC25(96-115) biotin peptide (human, not fully specified; N-terminal acetyl; C-terminal GGK-Biotin; native Cys changed to Ser)
T1 construct: also called Biotin LRRC25 (96-115) peptide
T1 peptide: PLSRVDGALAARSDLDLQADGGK

T2: LRRC25(51-69) biotin peptide (human, not fully specified; N-terminal acetyl; C-terminal GGK-Biotin)
T2 peptide: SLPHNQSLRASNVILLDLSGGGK

T3: LRRC25(141-159) biotin peptide (human, not fully specified; N-terminal acetyl; C-terminal GGK-Biotin; native Cys changed to Ser)
T3 peptide: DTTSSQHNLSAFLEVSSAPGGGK

T4: LRRC25(81-100) biotin peptide (human, not fully specified; N-terminal acetyl; C-terminal GGK-Biotin)
T4 peptide: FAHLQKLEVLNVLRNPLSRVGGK

T5: LRRC25(126-145) biotin peptide (human, not fully specified; N-terminal acetyl; C-terminal GGK-Biotin; native Cys changed to Ser)
T5 peptide: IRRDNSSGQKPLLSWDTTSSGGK

T6: LRRC25(111-130) biotin peptide (human, not fully specified; N-terminal acetyl; C-terminal GGK-Biotin; native Cys changed to Ser)
T6 peptide: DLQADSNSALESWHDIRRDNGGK

T7: LRRC25(21-40) biotin peptide (human, not fully specified; N-terminal NH2; C-terminal GGK-Biotin; native Cys changed to Ser)
T7 peptide: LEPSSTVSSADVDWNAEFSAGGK

T8: LRRC25(150-165) biotin peptide (human)
T8 peptide: Ac-SAFLEVSSAPGLASATGG-{Biotin′}

T9: LRRC25(66-85) biotin peptide (human, not fully specified; N-terminal acetyl; C-terminal GGK-Biotin)
T9 peptide: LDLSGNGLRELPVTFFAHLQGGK

T10: LRRC25(36-55) biotin peptide (human, not fully specified; N-terminal NH2; C-terminal GGK-Biotin; native Cys changed to Ser)
T10 peptide: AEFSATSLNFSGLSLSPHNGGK


Experiments:
[1] = target: T1, LRRC25(96-115) biotin peptide; experiment: ELISA, 20 nM antibody, biotinylated antigen on streptavidin plate
Method in brief: (§1)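 Plate-bound streptavidin captured biotinylated 16- to 20-mer LRRC25 ECD overlapping peptides (2 ug/mL), with biotinylated human LRRC25-His as positive control. Chimeric anti-LRRC25 antibodies at 20 nM, 45 min at 37° C in duplicate; detection by HRP anti-human IgG and TMB at A450 nm.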

[2] = target: T11, biotinylated human LRRC25-His protein (human, UniProt Q8N386 21-165, biotinylated (sites not given)); experiment: as above
T11 construct: also called Biotin LRRC25-His; biotinylated LRRC25 protein
Method in brief: as §1

[3] = target: T2, LRRC25(51-69) biotin peptide; experiment: peptide ELISA
Method in brief: as §1

[4] = target: T3, LRRC25(141-159) biotin peptide; experiment: peptide ELISA
Method in brief: as §1

[5] = target: T4, LRRC25(81-100) biotin peptide; experiment: peptide ELISA
Method in brief: as §1

[6] = target: T1, LRRC25(96-115) biotin peptide; experiment: peptide ELISA
Method in brief: as §1

[7] = target: T5, LRRC25(126-145) biotin peptide; experiment: peptide ELISA
Method in brief: as §1

[8] = target: T6, LRRC25(111-130) biotin peptide; experiment: peptide ELISA
Method in brief: as §1

[9] = target: T7, LRRC25(21-40) biotin peptide; experiment: peptide ELISA
Method in brief: as §1

[10] = target: T8, LRRC25(150-165) biotin peptide; experiment: peptide ELISA
Method in brief: as §1

[11] = target: T9, LRRC25(66-85) biotin peptide; experiment: peptide ELISA
Method in brief: as §1

[12] = target: T10, LRRC25(36-55) biotin peptide; experiment: peptide ELISA
Method in brief: as §1

[13] = target: T12, His-tagged cynomolgus monkey LRRC25 extracellular domain protein, cyno LRRC25-His (cynomolgus monkey); experiment: ELISA, plate-immobilized antigen
T12 construct: The entry holds the extracellular domain, a GSG linker and the His tag
Method in brief: (§2)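 Wells coated overnight at 4 °C with 1 ug/mL antigen in PBS pH 7.4. Antibodies titrated from 500 nM in 3-fold steps in 1% skimmed milk/PBS, 1 h at room temperature, then HRP anti-human IgG; TMB read at A450 nm and EC50 taken from binding curves.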

[14] = target: T13, His-tagged human LRRC25 extracellular domain protein, human LRRC25-His (human, UniProt Q8N386 21-165); experiment: ELISA, plate-immobilized antigen
T13 construct: The entry holds the extracellular domain, a GSG linker and the His tag; also called LRRC25(ECD)-HIS
Method in brief: as §2

[15] = target: T13, His-tagged human LRRC25 extracellular …; experiment: ELISA, antibody titrated on plate-immobilized Human LRRC25(ECD)-His, A450nm against -log [IgG] (M), left panel
Experimental: To establish the relative binding strengths of anti-LRRC25 antibodies against human LRRC25, and their cross-reactivity with cynomolgus monkey LRRC25, antibody binding curve analyses were performed and EC50 values against plate-immobilized recombinant human and cyno LRRC25 proteins were determined.
A typical ELISA was performed by coating overnight in PBS, pH 7.4, at 4° C. in high binding microtiter wells with 1 ug/mL/100 ul per well of human LRRC25-His or cyno LRRC25-His. An anti-human LRRC25 antibody (2A3, LS Bio, LS-C174039-100) and anti-HIS-HRP (Miltenyi Biotec; 130-092-783) served as coating controls for the human and cyno LRRC25 proteins, respectively. […] Anti-LRRC25 antibodies were added (100 ul per well) at 500 nM and serially diluted 3-fold in assay buffer (1% skimmed milk in PBS, pH 7.4). The plate was incubated with gentle agitation for 1 h at room temperature. The plate was washed 3× and HRP-conjugated secondary antibody in assay buffer added [100 ul per well; goat anti-human IgG (Jackson Immunoresearch, cat #715-035-150)], and the plate was incubated as before. Antibody bound to plate-immobilized LRRC25(ECD)-HIS was determined at A450 nm using HRP substrate (3,3′,5,5′-tetramethylbenzidine (TMB); eBioscience; 00-4201-56); 100 μl/well).

T12 sequence (chain, as listed by the source limits assumed): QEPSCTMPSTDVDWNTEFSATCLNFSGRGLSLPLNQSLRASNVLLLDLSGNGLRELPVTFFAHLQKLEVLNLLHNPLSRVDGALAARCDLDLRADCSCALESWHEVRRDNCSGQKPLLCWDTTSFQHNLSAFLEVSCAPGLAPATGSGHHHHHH
T11 sequence (Q8N386 other isoform, or with tags, fused parts or gaps): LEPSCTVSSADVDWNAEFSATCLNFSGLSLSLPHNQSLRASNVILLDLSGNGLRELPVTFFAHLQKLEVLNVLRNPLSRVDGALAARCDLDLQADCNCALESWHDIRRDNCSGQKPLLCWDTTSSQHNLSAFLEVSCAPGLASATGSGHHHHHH
T13 sequence (Q8N386 other isoform, or with tags, fused parts or gaps): as above

absorbance (A450) [1] [A450]	absorbance (A450) [2] [A450]	binding result [3]	binding result [4]	binding result [5]	binding result [6]	binding result [7]	binding result [8]	binding result [9]	binding result [10]	binding result [11]	binding result [12]	EC50 [13] [nM]	EC50 [14] [nM]	EC50 (read off the curve) [15] [nM]	Binder
0.052	2.44	no binding (tested: 20 nM)	no binding (tested: 20 nM)	no binding (tested: 20 nM)	no binding (tested: 20 nM)	no binding (tested: 20 nM)	no binding (tested: 20 nM)	no binding (tested: 20 nM)	no binding (tested: 20 nM)	no binding (tested: 20 nM)	no binding (tested: 20 nM)	4.6	0.63	–	anti-LRRC25 chimeric antibody 2A07 (antibody, human IgG4, V domains shown) VH: EVKLDESGGGLVQPGGSLKLSCATSGFTFSDYYMYWVRQTPEKRLEWVAYISNGGGSTYYPDTVKGRFTISRDNAKNTLYLQMSRLKSEDTAMYYCARSTAVSQMDYWGQGTSVTVSS VL: DIVLTQSPAIMSASPGEKVTLTCSASSSVRSSYLNWYQQKPGSSPKLWIHGTSNLASGVPARFSGSGSGTSYSLTISSMEAEDAASYFCHQWSSYPPTFGAGTKLELKR
0.054	2.6	no binding (tested: 20 nM)	no binding (tested: 20 nM)	no binding (tested: 20 nM)	no binding (tested: 20 nM)	no binding (tested: 20 nM)	no binding (tested: 20 nM)	no binding (tested: 20 nM)	no binding (tested: 20 nM)	no binding (tested: 20 nM)	no binding (tested: 20 nM)	0.65	0.39	–	anti-LRRC25 chimeric antibody 2C07 (antibody, human IgG4, V domains shown) VH: QITLKESGPGILQPSQTLSLTCSFSGFSLTTSGMGVSWIRQPSGKGLEWLAHIYWDDDKRYNPSLRSRLTISKDTSSNQVVLKLTNVDTADTATYYCARRARDYYNSGHWYFDVWGAGTTVTVSS VL: DVVMTQTPKSMSMSVGERVTLSCKASENVGTYVSWYQQKPDQSPKLLIFGASNRYTGVPDRFTGSGSATDFTLTISSVQAEDLADYHCGQTYSFPFTFGSGTKLEIKR
0.049	2.39	no binding (tested: 20 nM)	no binding (tested: 20 nM)	no binding (tested: 20 nM)	no binding (tested: 20 nM)	no binding (tested: 20 nM)	no binding (tested: 20 nM)	no binding (tested: 20 nM)	no binding (tested: 20 nM)	no binding (tested: 20 nM)	no binding (tested: 20 nM)	1.4	2	–	anti-LRRC25 chimeric antibody 2C08 (antibody, human IgG4, V domains shown) VH: QVTLKESGPGILQPSQTLSLTCSFSGFSLSTSGMGVSWIRQPSGKGLEWLAHIYWDDDKRYNPSLKSRLTLSKDTSSNQVFLKITSVDTADTATYYCARRPRDYYGGGHWYFDVWGAGTTVTVSS VL: DIVMTQSPKSMSMSVGERVTLTCKASENVGTYVSWYQQKAEQSPKLLIYGASNRYTGVPDRFTGSGSATDFTLTISNVQTEDLADYHCGQSYSYPFTFGSGTKLEIKR
2.56	1.7	no binding (tested: 20 nM)	no binding (tested: 20 nM)	no binding (tested: 20 nM)	–	no binding (tested: 20 nM)	no binding (tested: 20 nM)	no binding (tested: 20 nM)	no binding (tested: 20 nM)	no binding (tested: 20 nM)	no binding (tested: 20 nM)	83.2	1.3	~1	anti-LRRC25 chimeric antibody 1E01 (antibody, human IgG4, V domains shown, also called mAb 1E01) VH: DVQLVESGGGLVKPGGSLKLSCAASGFTFSNYAMSWVRQTPEKRLEWVASISRGGNTYYPDSVKGRFTISRDNARNILYLQMSSLRSEDTAIYYCTRGNYGSSLFAYWGQGTLVTVSA VL: DIVLTQSPASLTVSLGQRATISCRASKSVSTSGYSYMHWYQQKPGQPPKLLIYLASNLESGVPARFSGSGSRTDFTLTIDPVEADDAATYYCQQNNEDPWTFGGGTKLEIKR
0.134	0.714	no binding (tested: 20 nM)	no binding (tested: 20 nM)	no binding (tested: 20 nM)	no binding (tested: 20 nM)	no binding (tested: 20 nM)	no binding (tested: 20 nM)	no binding (tested: 20 nM)	no binding (tested: 20 nM)	no binding (tested: 20 nM)	no binding (tested: 20 nM)	~200	16.1	–	anti-LRRC25 chimeric antibody 3C07 (antibody, human IgG4, V domains shown) VH: EVKLDESGGGLVKPGGSLKLSCAASGFTFSRYAMSWVRQTPEKRLEWVASISRGGSTYYPDSVKGRFTISRDIARDILYLQMSSLRSEDTAMYYCARGNYGSSLFAYWGQGTLVTVSA VL: DIVMTQAAFSNPVTLGTSASISCRSSKSLLHSNGITYLYWYLQKPGQSPQLLIYQMSNLASGVPDRFSSSGSGTDFTLRISRVEAEDVGVYYCAQNLELPWTFGGGTKLEIKR
